B1: PR004270 (bispecific antibody, human IgG1)
chain 1: EVQLVESGGGLVQPGGSLRLSCAASGFTFSSYWMSWVRQAPGKGLEWVANIKQEGSEKYYVDSVKGRFTISRDNAKNSLYLQMNSLRAEDTAVYYCARDRAVAGAFDIWGQGTMVTVSSASTKGPSVFPLAPSSKSTSGGTAALGCLVKDYFPEPVTVSWNSGALTSGVHTFPAVLQSSGLYSLSSVVTVPSSSLGTQTYICNVNHKPSNTKVDKKVEPKSC
chain 2: not shown
notes: PD-L1x4-1BB Fab-HCAb symmetric structure: Fab of PR000265, VH of PR001760, human IgG1 (L234A, L235A)
B2: PR003549 (bispecific antibody, human IgG1, kappa, L234A L235A)
light: DIQMTQSPSTLSASVGDRVTVTCRASQSIYIWLAWYQQKPGKAPNLLIYKASSLETGVPSRFSGSGSGTEFTLTISSLQPDDFATYYCQQYYGSSRTFGQGTKVEIKRTVAAPSVFIFPPSDEQLKSGTASVVCLLNNFYPREAKVQWKVDNALQSGNSQESVTEQDSKDSTYSLSSTLTLSKADYEKHKVYACEVTHQGLSSPVTKSFNRGEC
heavy: EVQLVESGGGLVQPGGSLRLSCAASGFTFSSYWMSWVRQAPGKGLEWVANIKQEGSEKYYVDSVKGRFTISRDNAKNSLYLQMNSLRAEDTAVYYCARDRAVAGAFDIWGQGTMVTVSSASTKGPSVFPLAPSSKSTSGGTAALGCLVKDYFPEPVTVSWNSGALTSGVHTFPAVLQSSGLYSLSSVVTVPSSSLGTQTYICNVNHKPSNTKVDKKVEPKSCDKTHTCPPCPAPEAAGGPSVFLFPPKPKDTLMISRTPEVTCVVVDVSHEDPEVKFNWYVDGVEVHNAKTKPREEQYNSTYRVVSVLTVLHQDWLNGKEYKCKVSNKALGAPIEKTISKAKGQPREPQVYTLPPSREEMTKNQVSLTCLVKGFYPSDIAVEWESNGQPENNYKTTPPVLDSDGSFFLYSKLTVDKSRWQQGNVFSCSVMHEALHNHYTQKSLSLSPGEPKSSDKTHTPPPPPRTEVQLLESGGGLVQLGGSLRLSCAASGFTFSRYAMTWVRQAPEKGLEWVSSISGSGDDTYYGDSVKGRFTISRDNSQNTVYLQMNSLRAEDTAVYFCAKEKAGTTGDYYYNVDVWGQGTTVTVSS
notes: PD-L1x4-1BB IgG-VH: PR000265 + VH of PR001758 at heavy-chain C-terminus
B3: PR007136 (bispecific antibody, human IgG1, kappa)
light: DIQMTQSPSTLSASVGDRVTVTCRASQSIYIWLAWYQQKPGKAPNLLIYKASSLETGVPSRFSGSGSGTEFTLTISSLQPDDFATYYCQQYYGSSRTFGQGTKVEIKRTVAAPSVFIFPPSDEQLKSGTASVVCLLNNFYPREAKVQWKVDNALQSGNSQESVTEQDSKDSTYSLSSTLTLSKADYEKHKVYACEVTHQGLSSPVTKSFNRGEC
heavy: EVQLVESGGGLVQPGGSLRLSCAASGFTFSSYWMSWVRQAPGKGLEWVANIKQEGSEKYYVDSVKGRFTISRDNAKNSLYLQMNSLRAEDTAVYYCARDRAVAGAFDIWGQGTMVTVSSASTKGPSVFPLAPSSKSTSGGTAALGCLVKDYFPEPVTVSWNSGALTSGVHTFPAVLQSSGLYSLSSVVTVPSSSLGTQTYICNVNHKPSNTKVDKKVEPKSCDKTHTCPPCPAPEAAGAPSVFLFPPKPKDTLMISRTPEVTCVVVDVSHEDPEVKFNWYVDGVEVHNAKTKPREEQYNSTYRVVSVLTVLHQDWLNGKEYKCKVSNKALPAPIEKTISKAKGQPREPQVYTLPPSREEMTKNQVSLTCLVKGFYPSDIAVEWESNGQPENNYKTTPPVLDSDGSFFLYSKLTVDKSRWQQGNVFSCSVMHEALHNHYTQKSLSLSPGGGSGGSEVQLVESGGGLVKPGGSLRLSCAASGFTFSDYYMSWFRQAPGKGLEWVSYISSSGSTQDYADSVKGRFTISRDNAKNSLYLQMNSLRAEDTAVYYCAREREPVAGTLDFDNWGQGTPVTVSS
notes: PD-L1x4-1BB IgG-VH: PR000265 + VH of PR007289 at heavy-chain C-terminus
B4: PR004268 (bispecific antibody, human IgG1, kappa, L234A L235A)
light: DIQMTQSPSTLSASVGDRVTVTCRASQSIYIWLAWYQQKPGKAPNLLIYKASSLETGVPSRFSGSGSGTEFTLTISSLQPDDFATYYCQQYYGSSRTFGQGTKVEIKRTVAAPSVFIFPPSDEQLKSGTASVVCLLNNFYPREAKVQWKVDNALQSGNSQESVTEQDSKDSTYSLSSTLTLSKADYEKHKVYACEVTHQGLSSPVTKSFNRGEC
heavy: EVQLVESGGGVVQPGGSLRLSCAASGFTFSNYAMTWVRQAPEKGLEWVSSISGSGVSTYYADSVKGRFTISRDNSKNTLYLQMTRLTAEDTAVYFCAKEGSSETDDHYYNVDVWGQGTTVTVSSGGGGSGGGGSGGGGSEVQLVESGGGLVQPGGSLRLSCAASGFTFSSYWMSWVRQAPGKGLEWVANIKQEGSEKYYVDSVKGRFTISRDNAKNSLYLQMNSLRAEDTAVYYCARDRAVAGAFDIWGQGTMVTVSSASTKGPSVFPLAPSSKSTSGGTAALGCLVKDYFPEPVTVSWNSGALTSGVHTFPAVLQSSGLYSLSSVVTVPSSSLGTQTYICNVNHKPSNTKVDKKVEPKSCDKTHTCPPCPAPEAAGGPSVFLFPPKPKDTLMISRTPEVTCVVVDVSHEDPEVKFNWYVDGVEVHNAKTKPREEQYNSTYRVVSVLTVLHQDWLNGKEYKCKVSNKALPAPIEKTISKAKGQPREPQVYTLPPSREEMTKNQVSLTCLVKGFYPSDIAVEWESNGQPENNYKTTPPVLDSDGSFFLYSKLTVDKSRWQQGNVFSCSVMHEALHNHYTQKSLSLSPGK
notes: PD-L1x4-1BB IgG-VH: VH of PR001760 at heavy-chain N-terminus of PR000265, linker GS_15
B5: PR007130 (bispecific antibody, human IgG1, kappa)
light: DIQMTQSPSTLSASVGDRVTVTCRASQSIYIWLAWYQQKPGKAPNLLIYKASSLETGVPSRFSGSGSGTEFTLTISSLQPDDFATYYCQQYYGSSRTFGQGTKVEIKRTVAAPSVFIFPPSDEQLKSGTASVVCLLNNFYPREAKVQWKVDNALQSGNSQESVTEQDSKDSTYSLSSTLTLSKADYEKHKVYACEVTHQGLSSPVTKSFNRGEC
heavy: EVQLVESGGGLVQPGGSLRLSCAASGFTFSSYWMSWVRQAPGKGLEWVANIKQEGSEKYYVDSVKGRFTISRDNAKNSLYLQMNSLRAEDTAVYYCARDRAVAGAFDIWGQGTMVTVSSASTKGPSVFPLAPSSKSTSGGTAALGCLVKDYFPEPVTVSWNSGALTSGVHTFPAVLQSSGLYSLSSVVTVPSSSLGTQTYICNVNHKPSNTKVDKKVEPKSCDKTHTCPPCPAPEAAGAPSVFLFPPKPKDTLMISRTPEVTCVVVDVSHEDPEVKFNWYVDGVEVHNAKTKPREEQYNSTYRVVSVLTVLHQDWLNGKEYKCKVSNKALPAPIEKTISKAKGQPREPQVYTLPPSREEMTKNQVSLTCLVKGFYPSDIAVEWESNGQPENNYKTTPPVLDSDGSFFLYSKLTVDKSRWQQGNVFSCSVMHEALHNHYTQKSLSLSPGGGSGGSEVQLLESGGGLVQPGGSLRLSCAASGFTFSNYAMSWFRQPPETGLKWVSSIDASGGDTYYADSVKGRFTISRDNSKNTLYLQMNSLRAEDTAVYYCAKEGSHGTDDSHYDVDVWGQGTTVTVSS
notes: PD-L1x4-1BB IgG-VH: PR000265 + VH of PR004469 at heavy-chain C-terminus
B6: PR007132 (bispecific antibody, human IgG1, kappa)
light: DIQMTQSPSTLSASVGDRVTVTCRASQSIYIWLAWYQQKPGKAPNLLIYKASSLETGVPSRFSGSGSGTEFTLTISSLQPDDFATYYCQQYYGSSRTFGQGTKVEIKRTVAAPSVFIFPPSDEQLKSGTASVVCLLNNFYPREAKVQWKVDNALQSGNSQESVTEQDSKDSTYSLSSTLTLSKADYEKHKVYACEVTHQGLSSPVTKSFNRGEC
heavy: EVQLVESGGGLVQPGGSLRLSCAASGFTFSSYWMSWVRQAPGKGLEWVANIKQEGSEKYYVDSVKGRFTISRDNAKNSLYLQMNSLRAEDTAVYYCARDRAVAGAFDIWGQGTMVTVSSASTKGPSVFPLAPSSKSTSGGTAALGCLVKDYFPEPVTVSWNSGALTSGVHTFPAVLQSSGLYSLSSVVTVPSSSLGTQTYICNVNHKPSNTKVDKKVEPKSCDKTHTCPPCPAPEAAGAPSVFLFPPKPKDTLMISRTPEVTCVVVDVSHEDPEVKFNWYVDGVEVHNAKTKPREEQYNSTYRVVSVLTVLHQDWLNGKEYKCKVSNKALPAPIEKTISKAKGQPREPQVYTLPPSREEMTKNQVSLTCLVKGFYPSDIAVEWESNGQPENNYKTTPPVLDSDGSFFLYSKLTVDKSRWQQGNVFSCSVMHEALHNHYTQKSLSLSPGGGSGGSEVQLVESGGGLVKPGGSLRLSCAASGFTFSDYYMSWIRQAPGKGLEWVSYISSSGSTIYYADSVKGRFTISRDNAKNSLYLQMNSLRAEDTAVYYCARVKPVAGTWDWFDPWGQGTPVTVSS
notes: PD-L1x4-1BB IgG-VH: PR000265 + VH of PR007286 at heavy-chain C-terminus
B7: PR003551 (bispecific antibody, human IgG1, kappa, L234A L235A)
light: DIQMTQSPSTLSASVGDRVTVTCRASQSIYIWLAWYQQKPGKAPNLLIYKASSLETGVPSRFSGSGSGTEFTLTISSLQPDDFATYYCQQYYGSSRTFGQGTKVEIKRTVAAPSVFIFPPSDEQLKSGTASVVCLLNNFYPREAKVQWKVDNALQSGNSQESVTEQDSKDSTYSLSSTLTLSKADYEKHKVYACEVTHQGLSSPVTKSFNRGEC
heavy: EVQLVESGGGLVQPGGSLRLSCAASGFTFSSYWMSWVRQAPGKGLEWVANIKQEGSEKYYVDSVKGRFTISRDNAKNSLYLQMNSLRAEDTAVYYCARDRAVAGAFDIWGQGTMVTVSSASTKGPSVFPLAPSSKSTSGGTAALGCLVKDYFPEPVTVSWNSGALTSGVHTFPAVLQSSGLYSLSSVVTVPSSSLGTQTYICNVNHKPSNTKVDKKVEPKSCDKTHTCPPCPAPEAAGGPSVFLFPPKPKDTLMISRTPEVTCVVVDVSHEDPEVKFNWYVDGVEVHNAKTKPREEQYNSTYRVVSVLTVLHQDWLNGKEYKCKVSNKALGAPIEKTISKAKGQPREPQVYTLPPSREEMTKNQVSLTCLVKGFYPSDIAVEWESNGQPENNYKTTPPVLDSDGSFFLYSKLTVDKSRWQQGNVFSCSVMHEALHNHYTQKSLSLSPGEPKSSDKTHTPPPPPRTEVQLLESGGGLVQPGGSLRLSCAASGFIFSNFAMTWVRQPPEKGLKWVSSINGSGFNTYYTDSVKGRFTISRDNSRNTLYLQMNRLTAEDTAVYFCAKEGSSETDDHYYNVDVWGQGTTVTVSS
notes: PD-L1x4-1BB IgG-VH: PR000265 + VH of PR001836 at heavy-chain C-terminus

Experiments:
[1] = biological target: T1, human PD-L1 on CHO-K1 cells (human, UniProt Q9NZQ7 19-290); assay: FACS, CHO-K1/hPD-L1 cells
T1 construct: whole, on cells; also called CHO-K1/hPDL1; CHO-K1/hPD-L1
T1 sequence (Q9NZQ7 19-290): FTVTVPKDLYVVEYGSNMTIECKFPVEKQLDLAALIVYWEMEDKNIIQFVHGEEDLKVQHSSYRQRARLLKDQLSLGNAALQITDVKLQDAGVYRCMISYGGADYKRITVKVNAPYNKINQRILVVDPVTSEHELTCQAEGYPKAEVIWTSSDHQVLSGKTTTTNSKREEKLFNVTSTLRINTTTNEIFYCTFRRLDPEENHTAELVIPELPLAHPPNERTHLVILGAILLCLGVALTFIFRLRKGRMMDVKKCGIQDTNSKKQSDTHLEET

[2] = biological target: T2, human 4-1BB on CHO-K1 cells (human, UniProt Q07011 24-255); assay: FACS, CHO-K1/hu4-1BB cells
T2 construct: whole, on cells; also called CHO-K1/hu 4-1BB; CHO-K1/hu4-1BB
T2 sequence (Q07011 24-255): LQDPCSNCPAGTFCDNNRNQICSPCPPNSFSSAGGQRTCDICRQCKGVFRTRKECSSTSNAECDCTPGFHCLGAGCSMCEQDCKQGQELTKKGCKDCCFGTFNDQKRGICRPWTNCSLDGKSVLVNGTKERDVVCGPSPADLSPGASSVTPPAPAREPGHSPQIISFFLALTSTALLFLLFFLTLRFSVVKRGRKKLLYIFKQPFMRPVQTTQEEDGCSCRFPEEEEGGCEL
Method: The binding abilities of the antibody molecules to a CHO-K1 cell strain highly expressing human 4-1BB (CHO-K1/hu4-1BB, GenScript, M00538) and a CHO-K1 cell strain highly expressing cynomolgus monkey 4-1BB (CHO-K1/cyno4-1BB, GenScript, M00569) were determined by flow cytometry FACS. Specifically, the cells were digested and resuspended in a complete medium, and the cell density was adjusted to 2×10⁶ cells/mL. Then, the cells were seeded in a 96-well V-bottom plate (Corning, #3894) at 100 μL/well (2×10⁵ cells/well) and centrifuged at 4° C. for 5 min, and the supernatant was discarded. Then, the serially diluted antibody molecules were added to the 96-well plate at 100 μL/well, and the mixtures were well mixed. The antibody molecules might serially diluted 3-fold from the highest final concentration 200 nM to obtain a total of 12 concentrations. hIgG1 iso (CrownBio, #C0001) was used as an isotype control. The cells were incubated at 4° C. for 1 h away from light. Then, the cells in each well were rinsed twice with 100 μL of pre-cooled FACS buffer (PBS buffer containing 0.5% BSA) and centrifuged at 500 g at 4° C. for 5 min, and then the supernatant was discarded. […] Then, the cells in each well were then rinsed twice with 200 μL of pre-cooled FACS buffer and centrifuged at 500 g at 4° C. for 5 min, and then the supernatant was discarded. Finally, a pre-cooled FACS buffer was added at 200 μL/well to resuspend the cells. The fluorescence signal values were read using a BD FACS CANTOII flow cytometer.

Row | binding result [1] | binding result [2] | Binder
1 | binds | – | B1
2 | binds | binds | B2
3 | binds | binds | B3
4 | binds | – | B4
5 | binds | binds | B5
6 | binds | binds | B6
7 | binds | binds | B7

Reference: patent US20230242658A1 (published 2023)
